The supplement of paper PMC9112550, “Optimization of the antimicrobial peptide Bac7 by deep mutational scanning” (BMC Biology, 2022)

System: Escherichia coli TOP10
Test: shrunken log2 fold change of peptide-encoding DNA abundance (4.5 h post-induction vs induction); higher = less antimicrobial activity (less host growth inhibition)
Conditions: time post-induction: 4.5 h; library: site-saturation at positions 5, 18, 19, 20
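Note: peptides expressed intracellularly from a pBAD plasmid library in pooled LB shake-flask culture, induced with 0.3% L-arabinose, DNA abundance read by NGS, three biological replicates, DESeq2 with apeglm shrinkage.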

| Sequence | shrunken log2 fold change |
| --- | --- |
| RRIRSRPPRLPRPRPRPREPPRP | 0.284 |
| RRIRYRPPRLPRPRPRPHFHPRP | -0.489 |
| RRIRIRPPRLPRPRPRPTRLPRP | 0.0583 |
| RRIRYRPPRLPRPRPRPYVAPRP | -0.206 |
| RRIRRRPPRLPRPRPRPECAPRP | 0.426 |
| RRIRARPPRLPRPRPRPFMFPRP | 0.189 |
| RRIRFRPPRLPRPRPRPRKEPRP | -0.0425 |
| RRIRVRPPRLPRPRPRPFSNPRP | -0.28 |
| RRIRIRPPRLPRPRPRPDDWPRP | -0.0592 |
| RRIRERPPRLPRPRPRPLAPPRP | 0.101 |
| RRIRIRPPRLPRPRPRPKQEPRP | 0.113 |
| RRIRPRPPRLPRPRPRPDVIPRP | -0.0251 |
| RRIRQRPPRLPRPRPRPWDAPRP | -0.0479 |
| RRIRDRPPRLPRPRPRPASWPRP | 0.805 |
| RRIRGRPPRLPRPRPRPMHEPRP | 0.928 |
| RRIRMRPPRLPRPRPRPVIDPRP | 0.0403 |
| RRIRARPPRLPRPRPRPPAPPRP | 1.19 |
| RRIRDRPPRLPRPRPRPLNLPRP | -0.324 |
| RRIRCRPPRLPRPRPRPQPTPRP | 0.319 |
| RRIRWRPPRLPRPRPRPAWTPRP | 0.428 |
| RRIRPRPPRLPRPRPRPWMIPRP | -0.334 |
| RRIRKRPPRLPRPRPRPCCIPRP | 0.243 |
| RRIRKRPPRLPRPRPRPTMEPRP | 0.204 |
| RRIRWRPPRLPRPRPRPSNAPRP | -0.0613 |
| RRIRLRPPRLPRPRPRPGMSPRP | 0.0159 |

| Sequence | shrunken log2 fold change |
| --- | --- |
| RRIRNRPPRLPRPRPRPWHIPRP | -0.325 |
| RRIRPRPPRLPRPRPRPVDHPRP | 0.0611 |
| RRIRQRPPRLPRPRPRPPVNPRP | -0.0759 |
| RRIRPRPPRLPRPRPRPFGSPRP | 0.0959 |
| RRIRCRPPRLPRPRPRPEENPRP | 0.602 |
| RRIRDRPPRLPRPRPRPMLEPRP | 0.358 |
| RRIRWRPPRLPRPRPRPNNMPRP | -0.345 |
| RRIRKRPPRLPRPRPRPLAHPRP | 0.551 |
| RRIRTRPPRLPRPRPRPQIPPRP | -0.235 |
| RRIRHRPPRLPRPRPRPAHLPRP | 0.0167 |
| RRIRARPPRLPRPRPRPTAKPRP | 1.36 |
| RRIRQRPPRLPRPRPRPVDVPRP | -0.208 |
| RRIRHRPPRLPRPRPRPTTLPRP | -0.301 |
| RRIRLRPPRLPRPRPRPGHVPRP | 0.0522 |
| RRIRPRPPRLPRPRPRPYMWPRP | -0.455 |
| RRIRLRPPRLPRPRPRPTRIPRP | -0.141 |
| RRIRVRPPRLPRPRPRPAWAPRP | 0.255 |
| RRIRNRPPRLPRPRPRPQPTPRP | 0.0158 |
| RRIRHRPPRLPRPRPRPNVPPRP | -0.0223 |
| RRIRTRPPRLPRPRPRPSKRPRP | -0.325 |
| RRIRHRPPRLPRPRPRPSIWPRP | -0.244 |
| RRIRYRPPRLPRPRPRPRCLPRP | -0.0564 |
| RRIRERPPRLPRPRPRPHHWPRP | -0.315 |
| RRIRYRPPRLPRPRPRPAPEPRP | 0.134 |
| RRIRDRPPRLPRPRPRPTVSPRP | 0.853 |
